The values below come from article PMC2680285.

The assay addresses T1, wild-type GADD45α (growth arrest- and DNA damage-induced gene 45α), C-terminally myc-tagged (human), P24522.
T1 chain: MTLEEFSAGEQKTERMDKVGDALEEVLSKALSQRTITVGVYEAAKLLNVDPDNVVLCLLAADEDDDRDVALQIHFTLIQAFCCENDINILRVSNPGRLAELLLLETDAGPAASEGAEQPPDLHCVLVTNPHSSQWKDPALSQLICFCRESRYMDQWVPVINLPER
Kind of assay: native gel or EMSA. The settings on record: remark: other sources report otherwise. (In general: In EMSA bound probe runs differently from free probe, usually more slowly.)

Where “and” joins values, the source holds several entries; their conditions need not be identical. Identical values can stand only once.

B1: wild-type GADD45α (growth arrest- and DNA damage-induced gene 45α), C-terminally myc-tagged, P24522 1-165 (natural protein)
chain: T1 chain
A word on the stoichiometry N: it is the number of molecules, sites or subunits per partner or assembly. B1: the stoichiometry N is 3 and 4.
